Results as given in paper PMC6393540, “A dual role in regulation and toxicity for the disordered N-terminus of the toxin GraT”.

Biological target: Δ22GraT in Δ22GraT2A2 complex;GraA-His in Δ22GraT2A2 complex (Pseudomonas putida;Pseudomonas putida, UniProt Q88MI5;Q88MI6 23-92;1-99, del2-22|)
Assay: ITC; macroscopic; ITC: 50 mM Tris pH 8.0, 250 mM NaCl, 2 mM β-mercaptoethanol (TCEP in purification for ITC), 25 °C; EMSA: 5 µM DNA, 30 min at room temperature, 6% native PAGE in TBE on ice
Details: protein: recombinant;recombinant; tags: ;C-terminal His6; chain copies: 2;2

B1: graTA operator wild type 33 bp (dsDNA)
DNA 1: AAATTAACGAATAACGTTAAGCATTCAGCTCAT
DNA 2: ATGAGCTGAATGCTTAACGTTATTCGTTAATTT
Q: For B1, which Ka is on record?
A: Its Ka is 2.3e+15 M^-2.
